Experiment [1] addresses human CD38 on multiple myeloma cells (human) (UniProt P28907). Description: flow cytometry on NCI-H929 BCMA KO cells (BCMA-negative, CD38-positive). Background: Flow cytometry measures light scatter and fluorescence of single cells or particles in a stream.
Experiment [2] concerns the target soluble BCMA (UniProt Q02223). The experiment is described as follows: cell-based or functional assay.

Chain of soluble BCMA (Q02223 1-54 limits assumed): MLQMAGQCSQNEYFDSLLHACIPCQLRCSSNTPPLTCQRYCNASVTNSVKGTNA

In experiment [1], alnuctamab (bispecific antibody) registered a Maximum binding (RFI) of 101 RFI. In experiment [2], the Fold difference to no soluble factor condition (EC50 from % Cytotoxicity), sBCMA was determined as 380 fold and the Fold difference to no soluble factor condition (EC50 from % Killing to No Ab), sBCMA turned out to be 367 fold.

Regarding teclistamab (bispecific antibody), in experiment [1], the Maximum binding (RFI) was 104 RFI. In experiment [2], this substance had a Fold difference to no soluble factor condition (EC50 from % Cytotoxicity), sBCMA of 75 fold and a Fold difference to no soluble factor condition (EC50 from % Killing to No Ab), sBCMA of 30 fold.

(Values after patent US20240132615A1.)
